These results are taken from US20080160018A1.

Assay [1] deals with human IL-2 receptor (p55 Tac protein) on HUT-102 cells (human) (UniProt P01589). The experiment in a line: competition with radioiodinated mouse anti-Tac on HUT-102 cells.
For assay [2], the target named is gH glycoprotein of cytomegalovirus on CMV-infected HEL cells (cytomegalovirus (CMV)) (UniProt P12824). Nature of the assay: immunostaining of CMV-infected HEL cells, 2-fold dilutions, HRP secondary.
Assay [3] has as its target human IL-2 receptor (p55 Tac protein) on HUT-102 cells (human) (UniProt P01589). The experiment in a line: cell-based or functional assay.

Chain of human IL-2 receptor (p55 Tac protein) on HUT-102 cells (human) (P01589 22-272): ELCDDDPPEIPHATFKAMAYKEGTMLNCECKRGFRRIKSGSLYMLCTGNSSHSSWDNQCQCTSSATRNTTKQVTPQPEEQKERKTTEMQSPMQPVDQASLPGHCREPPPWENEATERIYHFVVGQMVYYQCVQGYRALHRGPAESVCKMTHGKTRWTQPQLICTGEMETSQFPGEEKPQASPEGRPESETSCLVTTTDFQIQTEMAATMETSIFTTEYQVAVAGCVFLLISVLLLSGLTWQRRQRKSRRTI

B1: CDR-only humanized anti-Tac antibody (antibody, V domains shown)
VH: QVQLVQSGAEVKKPGSSVKVSCKASGGTFSSYRMHWVRQAPGQGLEWMGYINPSTGYTEYNQKFKDRVTITADESTNTAYMELSSLRSEDTAFYFCAGGGGVFDYEYNGGLVTVSS
VL: DIQMTQSPSTLSASVGDRVTITCSASSSISYMHWYQQKPGKAPKLLMYTTSNLASGVPSRFIGSGSGTEFTLTISSLQPDDFATYYCHQRSTYPLTFGQGTKVEVK
With B1, the fold reduction of binding affinity compared to the PDL humanized anti-Tac antibody in assay [1] was above 100 fold.

B2: mouse CMV5 antibody (antibody, V domains shown)
VH: EVQLQQSGPELVKPGASMKISCKASVYSFTGYTMNWVKQSHGQNLEWIGLINPYNGGTSYNQKFKGKATLTVDKSSNTAYMELLSLTSADSAVYYCTRRGFRDYSMDYWGQGTSVTVSS
VL: DIVLTQSPATLSVTPGDSVSLSCRASQSISNNLHWYQQKSHESPRLLIKYASQSISGIPSRFSGSGSGTDFTLSVNGVETEDFGMYFCQQSNSWPHTFGGGTKLEIK
As for B2, the least amount of antibody that produced a detectable precipitate in assay [2] amounted to 63 ng/mL.

B3: mouse anti-Tac antibody (antibody, V domains shown)
VH: QVQLQQSGAELAKPGASVKMSCKASGYTFTSYRMHWVKQRPGQGLEWIGYINPSTGYTEYNQKFKDKATLTADKSSSTAYMQLSSLTFEDSAVYYCARGGGVFDYWGQGTTLTVSS
VL: QIVLTQSPAIMSASPGEKVTITCSASSSISYMHWFQQKPGTSPKLWIYTTSNLASGVPARFSGSGSGTSYSLTISRMEAEDAATYYCHQRSTYPLTFGSGTKLELK
Consider B3, for which, in assay [3], the Percent 51Cr release after ADCC, effector:target ratio 30:1 stood at 4% and the Percent 51Cr release after ADCC, effector:target ratio 100:1 is below 1%.
